Publication PMC10720262 (Cell Reports, 2023)

B1: CL-513279 (antibody, V domains shown)
VH: QVQLVESGGGVVQPGRSLRLSCAASGFTFSNFGMHWVRQAPVKGLEWVALIWYDGSNKFYADSVQGRFTISRDNSKNILYLQMNSLRAEDTAVYYCAKVEARGVDYHSYGMDVWGQGTTVTVSS
VL: DIQMTQSPSTLSASVGDRVTITCRASQSISSWLAWYQQKPGKAPQLLIYKASSLESGVPSRFSGSGSGTEFTLTISSLQPDDFATYYCQQYKYYWTFGQGTKVEIK
B2: CL-513809 (antibody, V domains shown)
VH: QVQLVESGGGVVQPGRSLRLSCAASGFIFSNYGMYWVRQTPDKGLEWVALIWYDGNNKFYSDSVKGRFTVSRDNSKNTLYLQMNSLRDEDTALYYCARAGYFYGSGSSLDKWGQGTLVTVSS
VL: DIQMTQSPSTLSASVGDRVSITCRASQSISIWLAWYQQKPGKAPKLLIYKASSLESGVPSRFSGSGSGTEFTLTISSLQPDDFATYYCQQYNSYWTFGQGTKVEIK
B3: CL-513462 (antibody, V domains shown)
VH: QVQLVESGGGVVQPGRSLRVSCAASGFTFSNYGMYWVRQAPGKGLEWVAVIWHDGTNKFYEDSVKGRFTISRDNSKNTLYLQMNSLRAEDTAVYYCARAGYFQGSGSFLDYWGQGTLVTVSS
VL: DIQMTQSPSTLSASVGDRVTITCRASQSISSWLAWYQQKPGKAPKLLIYKASSLESGVPSRFSGSGSGTEFTLTISSLQPDDFATYFCQQYSSYWTFGQGTKVEIK
B4: CL-513780 (antibody, V domains shown)
VH: QVQLVESGGGVVQPGRSLRLSCTASGFIFSNYGMYWVRQAPGKGLDWVALIWYDGSNKYYVGSVKGRFTISRDNSKNTLYLQMNSLRAEDTAVYYCARAGKYSGSGSYLDSWGQGTLVTVSS
VL: DIQMTPSPSILSASVGDRVTITCRASQNISSWLAWYQQKPGKAPKLLIYKASSLESGVPSRFSGSGSGTEFTLTISSLQPDDFATYFCQQYYSYWTFGQGTKVEIK
B5: CL-513701 (antibody, V domains shown)
VH: QVQLVESGGGVVQTGRSLRLSCTASGFIFSNYGMYWVRQAPGKGLEWVALIWYDGSNKYYVDSVKGRFTISRDNSKNTLYLQMNSLRAEDTAVYYCARAGKYSGSGSYLDSWGQGTLVTVSS
VL: DIQMTQSPSSVSASVGDRVTITCRASQGISSWLAWYQQKPGKAPKLLIYTASSLQSGVPSRFSGSGSGTDFTLTISSLQPDDFATYFCQQYSRYWTFGQGTKVEIK
B6: CL-513617 (antibody, V domains shown)
VH: QVQLVESGGGVVQPGRSLRLSCAASGFIFSNYGMYWVRQTPDKGLEWVALIWYDGGNKFYSDSVKGRFTVSRDNSKNTLYLQMNSLRDEDTALYYCARAGYFYGSGSSLDKWGQGTLVTVSS
VL: DIQMTQSPSTLSASVGDRVSITCRASQSISIWLAWYQQKPGKAPKLLIYKASSLESGVPSRFSGSGSGTEFSLTISSLQPDDFATYYCQQYNRYWTFGQGTKVEIK
B7: CL-513691 (antibody, V domains shown)
VH: QVQLVESGGDVVQTGRSLRLSCAASGFTFSNYGMHWVRQAPDKGLEWVAIIWYDGSNKFYADSVKGRFTISRDNSKNTLYLHIHSLRAEDTAVYYCARDDRGDSAGPYFVYWGQGTLVTVSS
VL: EIVMTQSPATLSVSPGERATLSCRASQSVSDNLAWYQQRPGQAPRLLIYGASIRATGIPARFGGSGSGTEFTLTISILQSADFAVYYCQQHDSWPWTFGQGTKVEIK
B8: CL-513808 (antibody, V domains shown)
VH: QVQLVESGGGVVQPGRSLRLSCAASGFTFSNYGMHWVRQAPGKGLEWVAIIWYDGSNKFYADSVKGRFTISRDNSKNTLYLQMNSLRAEDTAVYYCARDDRGHSYGPYFDFWGQGTLVTVSS
VL: EIVMTQSPATLSVSPGERATLSCRASQSVSSNLAWYQQKPGQAPRLLIYGASIRATGIPARFSGSGSGTEFTLTISILQSEDFAVYYCQQCNNWPWTFGQGTKVEIK

Biological target: recombinant full-length PfCSP (Plasmodium falciparum circumsporozoite protein, strain NF54) (Plasmodium falciparum NF54, UniProt P19597)
Sequence (P19597 20-375): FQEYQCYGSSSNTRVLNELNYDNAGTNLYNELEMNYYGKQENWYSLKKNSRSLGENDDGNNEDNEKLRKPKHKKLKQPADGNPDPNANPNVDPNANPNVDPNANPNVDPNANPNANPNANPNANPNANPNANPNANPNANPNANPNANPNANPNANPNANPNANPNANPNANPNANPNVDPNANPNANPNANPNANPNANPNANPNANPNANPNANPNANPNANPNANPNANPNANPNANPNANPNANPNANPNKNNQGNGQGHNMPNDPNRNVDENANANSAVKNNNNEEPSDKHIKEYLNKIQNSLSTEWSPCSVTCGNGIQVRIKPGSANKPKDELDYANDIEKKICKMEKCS

Binding result, binds:
B1, B2, B3, B4, B5, B6, B7, B8
